From US20220298218A1 (ANTAG THERAPEUTICS, published 2022)
Read-outs that look alike come from different tables or passages of the source. *1 amine or outer side, *2 acyl side, *3 side chain or, on linkers, in order; H or OH if unused. Where no end group is shown, it is not given here. Side-chain parts run from the residue outwards. [ ]: non-standard residue; d: D form. The star is where a group is joined. d(γGlu) = O=C(O)[C@@H](CCC(=O)[*:2])N[*:1]; C18 diacid = O=C(O)CCCCCCCCCCCCCCCCC(=O)*; C16 diacid = O=C(O)CCCCCCCCCCCCCCC(=O)*; γGlu = O=C(O)[C@H](CCC(=O)[*:2])N[*:1]; Glutaryl = O=C(CCCC(=O)[*:2])[*:1]; Nle = CCCC[C@H](N)C(=O)O; AEEA = NCCOCCOCC(=O)O; Aib = CC(C)(N)C(=O)O

T1: human GIP receptor (human, UniProt P48546 22-466)
T1 sequence (looked up): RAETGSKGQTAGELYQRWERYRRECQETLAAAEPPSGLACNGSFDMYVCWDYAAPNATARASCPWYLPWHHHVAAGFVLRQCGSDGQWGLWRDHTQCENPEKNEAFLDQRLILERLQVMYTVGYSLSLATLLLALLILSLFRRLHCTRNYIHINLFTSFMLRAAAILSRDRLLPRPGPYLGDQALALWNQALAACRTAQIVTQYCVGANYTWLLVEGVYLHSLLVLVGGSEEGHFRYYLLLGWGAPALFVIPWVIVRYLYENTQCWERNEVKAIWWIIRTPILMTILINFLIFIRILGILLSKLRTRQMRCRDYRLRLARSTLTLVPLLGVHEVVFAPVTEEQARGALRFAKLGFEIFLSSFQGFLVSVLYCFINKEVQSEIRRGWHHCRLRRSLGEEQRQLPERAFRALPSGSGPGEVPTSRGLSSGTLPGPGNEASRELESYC


Legend:
[1] = biological target: T1, human GIP receptor; test: cell-based or functional assay
[2] = biological target: T1, human GIP receptor; test: cell-based or functional assay; remark: listed apart in the source

Binder | cAMP agonism % Emax [1] | cAMP antagonism [1] | cAMP antagonism % inhib [1] | cAMP antagonism pIC50 [1] | cAMP agonism Emax [2] | cAMP antagonism [2] | cAMP antagonism % inhib [2] | cAMP antagonism log [2]
[γGlu]GTFISDYSIA[Nle]DKIK(C16 diacid)QQDFVEWLLAQKPSSGAPPPS-OH (N-terminus assumed; SMILES CCCC[C@H](NC(=O)[C@H](C)NC(=O)[C@@H](NC(=O)[C@H](CO)NC(=O)[C@H](Cc1ccc(O)cc1)NC(=O)[C@H](CC(=O)O)NC(=O)[C@H](CO)NC(=O)[C@@H](NC(=O)[C@H](Cc1ccccc1)NC(=O)[C@@H](NC(=O)CNC(=O)CC[C@H](N)C(=O)O)[C@@H](C)O)[C@@H](C)CC)[C@@H](C)CC)C(=O)N[C@@H](CC(=O)O)C(=O)N[C@@H](CCCCN)C(=O)N[C@H](C(=O)N[C@@H](CCCCNC(=O)CCCCCCCCCCCCCCC(=O)O)C(=O)N[C@@H](CCC(N)=O)C(=O)N[C@@H](CCC(N)=O)C(=O)N[C@@H](CC(=O)O)C(=O)N[C@@H](Cc1ccccc1)C(=O)N[C@H](C(=O)N[C@@H](CCC(=O)O)C(=O)N[C@@H](Cc1c[nH]c2ccccc12)C(=O)N[C@@H](CC(C)C)C(=O)N[C@@H](CC(C)C)C(=O)N[C@@H](C)C(=O)N[C@@H](CCC(N)=O)C(=O)N[C@@H](CCCCN)C(=O)N1CCC[C@H]1C(=O)N[C@@H](CO)C(=O)N[C@@H](CO)C(=O)NCC(=O)N[C@@H](C)C(=O)N1CCC[C@H]1C(=O)N1CCC[C@H]1C(=O)N1CCC[C@H]1C(=O)N[C@@H](CO)C(=O)O)C(C)C)[C@@H](C)CC) [AT697] | 8% | 2.82 nM | 81% | 8.6 | – | – | – | –
[βGlu]GTFISDYSIA[Nle]DKIK(C16 diacid)QQDFVEWLLAQKPSSGAPPPS-OH [AT699] | 0% | 6.31 nM | 88% | 8.2 | – | – | – | –
EGTFISDYSIALDKIKQQDFVNWLLAQKPSSGAPPPS (βGlu at 3; Aib at 13; Nle at 14; K18: C16-diacid; C-term COOH) [AT703] | 0% | 4.3 nM | 93% | 8.6 | – | – | – | –
Glutaryl-GTFISDYSIA[Nle]DKIK(C16 diacid)QQDFVEWLLAQKPSSGAPPPS-OH [AT700] | 3% | 0.708 nM | 89% | 9.2 | – | – | – | –
EGTFISDYSIAMDKIK([AEEA-AEEA-AEEA-γGlu-C18 diacid])QQDFVNWLLAQKGKKNDW-OH (N-terminus assumed; SMILES CC[C@H](C)[C@H](NC(=O)[C@H](CO)NC(=O)[C@H](Cc1ccc(O)cc1)NC(=O)[C@H](CC(=O)O)NC(=O)[C@H](CO)NC(=O)[C@@H](NC(=O)[C@H](Cc1ccccc1)NC(=O)[C@@H](NC(=O)CNC(=O)[C@@H](N)CCC(=O)O)[C@@H](C)O)[C@@H](C)CC)C(=O)N[C@@H](C)C(=O)N[C@@H](CCSC)C(=O)N[C@@H](CC(=O)O)C(=O)N[C@@H](CCCCN)C(=O)N[C@H](C(=O)N[C@@H](CCCCNC(=O)COCCOCCNC(=O)COCCOCCNC(=O)COCCOCCNC(=O)CC[C@H](NC(=O)CCCCCCCCCCCCCCCCC(=O)O)C(=O)O)C(=O)N[C@@H](CCC(N)=O)C(=O)N[C@@H](CCC(N)=O)C(=O)N[C@@H](CC(=O)O)C(=O)N[C@@H](Cc1ccccc1)C(=O)N[C@H](C(=O)N[C@@H](CC(N)=O)C(=O)N[C@@H](Cc1c[nH]c2ccccc12)C(=O)N[C@@H](CC(C)C)C(=O)N[C@@H](CC(C)C)C(=O)N[C@@H](C)C(=O)N[C@@H](CCC(N)=O)C(=O)N[C@@H](CCCCN)C(=O)NCC(=O)N[C@@H](CCCCN)C(=O)N[C@@H](CCCCN)C(=O)N[C@@H](CC(N)=O)C(=O)N[C@@H](CC(=O)O)C(=O)N[C@@H](Cc1c[nH]c2ccccc12)C(=O)O)C(C)C)[C@@H](C)CC) [AT418] | – | – | – | – | 7.8 | 68 nM | 95% | -7.2 log M
Glutaryl-GTFISDYSIA[Nle]DKIK([AEEA-AEEA-γGlu-C18 diacid])QQDFVEWLLAQKPSSGAPPPS-OH [AT702] | 0% | 3.55 nM | 85% | 8.5 | – | – | – | –
SGTFISDYSIAMDKIK([AEEA-AEEA-γGlu-C16 diacid])QQDFVNWLLAQKGKKNDW-OH (N-terminus assumed; SMILES CC[C@H](C)[C@H](NC(=O)[C@H](CO)NC(=O)[C@H](Cc1ccc(O)cc1)NC(=O)[C@H](CC(=O)O)NC(=O)[C@H](CO)NC(=O)[C@@H](NC(=O)[C@H](Cc1ccccc1)NC(=O)[C@@H](NC(=O)CNC(=O)[C@@H](N)CO)[C@@H](C)O)[C@@H](C)CC)C(=O)N[C@@H](C)C(=O)N[C@@H](CCSC)C(=O)N[C@@H](CC(=O)O)C(=O)N[C@@H](CCCCN)C(=O)N[C@H](C(=O)N[C@@H](CCCCNC(=O)COCCOCCNC(=O)COCCOCCNC(=O)CC[C@H](NC(=O)CCCCCCCCCCCCCCC(=O)O)C(=O)O)C(=O)N[C@@H](CCC(N)=O)C(=O)N[C@@H](CCC(N)=O)C(=O)N[C@@H](CC(=O)O)C(=O)N[C@@H](Cc1ccccc1)C(=O)N[C@H](C(=O)N[C@@H](CC(N)=O)C(=O)N[C@@H](Cc1c[nH]c2ccccc12)C(=O)N[C@@H](CC(C)C)C(=O)N[C@@H](CC(C)C)C(=O)N[C@@H](C)C(=O)N[C@@H](CCC(N)=O)C(=O)N[C@@H](CCCCN)C(=O)NCC(=O)N[C@@H](CCCCN)C(=O)N[C@@H](CCCCN)C(=O)N[C@@H](CC(N)=O)C(=O)N[C@@H](CC(=O)O)C(=O)N[C@@H](Cc1c[nH]c2ccccc12)C(=O)O)C(C)C)[C@@H](C)CC) [AT419] | – | – | – | – | 4.9 | 215 nM | 78% | -6.7 log M
[d(γGlu)]GTFISDYSIA[Nle]DKIK(C16 diacid)QQDFVEWLLAQKPSSGAPPPS-OH (N-terminus assumed; SMILES CCCC[C@H](NC(=O)[C@H](C)NC(=O)[C@@H](NC(=O)[C@H](CO)NC(=O)[C@H](Cc1ccc(O)cc1)NC(=O)[C@H](CC(=O)O)NC(=O)[C@H](CO)NC(=O)[C@@H](NC(=O)[C@H](Cc1ccccc1)NC(=O)[C@@H](NC(=O)CNC(=O)CC[C@@H](N)C(=O)O)[C@@H](C)O)[C@@H](C)CC)[C@@H](C)CC)C(=O)N[C@@H](CC(=O)O)C(=O)N[C@@H](CCCCN)C(=O)N[C@H](C(=O)N[C@@H](CCCCNC(=O)CCCCCCCCCCCCCCC(=O)O)C(=O)N[C@@H](CCC(N)=O)C(=O)N[C@@H](CCC(N)=O)C(=O)N[C@@H](CC(=O)O)C(=O)N[C@@H](Cc1ccccc1)C(=O)N[C@H](C(=O)N[C@@H](CCC(=O)O)C(=O)N[C@@H](Cc1c[nH]c2ccccc12)C(=O)N[C@@H](CC(C)C)C(=O)N[C@@H](CC(C)C)C(=O)N[C@@H](C)C(=O)N[C@@H](CCC(N)=O)C(=O)N[C@@H](CCCCN)C(=O)N1CCC[C@H]1C(=O)N[C@@H](CO)C(=O)N[C@@H](CO)C(=O)NCC(=O)N[C@@H](C)C(=O)N1CCC[C@H]1C(=O)N1CCC[C@H]1C(=O)N1CCC[C@H]1C(=O)N[C@@H](CO)C(=O)O)C(C)C)[C@@H](C)CC) [AT698] | 8% | 9.26 nM | 78% | 8 | – | – | – | –
[βGlu]GTFISDYSIA[Nle]DKIK([AEEA-AEEA-γGlu-C18 diacid])QQDFVEWLLAQKPSSGAPPPS-OH [AT701] | 13% | 12.6 nM | 63% | 7.9 | – | – | – | –
EGTFISEYSI[Aib][Nle]EKIK([AEEA-AEEA-γGlu-C18 diacid])QQEFVEWLLAQKPSSGAPPPS-OH (N-terminus assumed; SMILES CCCC[C@H](NC(=O)C(C)(C)NC(=O)[C@@H](NC(=O)[C@H](CO)NC(=O)[C@H](Cc1ccc(O)cc1)NC(=O)[C@H](CCC(=O)O)NC(=O)[C@H](CO)NC(=O)[C@@H](NC(=O)[C@H](Cc1ccccc1)NC(=O)[C@@H](NC(=O)CNC(=O)[C@@H](N)CCC(=O)O)[C@@H](C)O)[C@@H](C)CC)[C@@H](C)CC)C(=O)N[C@@H](CCC(=O)O)C(=O)N[C@@H](CCCCN)C(=O)N[C@H](C(=O)N[C@@H](CCCCNC(=O)COCCOCCNC(=O)COCCOCCNC(=O)CC[C@H](NC(=O)CCCCCCCCCCCCCCCCC(=O)O)C(=O)O)C(=O)N[C@@H](CCC(N)=O)C(=O)N[C@@H](CCC(N)=O)C(=O)N[C@@H](CCC(=O)O)C(=O)N[C@@H](Cc1ccccc1)C(=O)N[C@H](C(=O)N[C@@H](CCC(=O)O)C(=O)N[C@@H](Cc1c[nH]c2ccccc12)C(=O)N[C@@H](CC(C)C)C(=O)N[C@@H](CC(C)C)C(=O)N[C@@H](C)C(=O)N[C@@H](CCC(N)=O)C(=O)N[C@@H](CCCCN)C(=O)N1CCC[C@H]1C(=O)N[C@@H](CO)C(=O)N[C@@H](CO)C(=O)NCC(=O)N[C@@H](C)C(=O)N1CCC[C@H]1C(=O)N1CCC[C@H]1C(=O)N1CCC[C@H]1C(=O)N[C@@H](CO)C(=O)O)C(C)C)[C@@H](C)CC) [AT696] | 0% | 0.584 nM | 97% | 9.2 | – | – | – | –
